Measured values reported in US20170066807A1 (Pieris, published 2017).

Target: T1, human GPC-3 on cells (SK Hep1:hGPC-3 transfectants; HepG2) (human, UniProt P51654 25-554)
T1 construct: whole, on cells; The same molecule is used for the transfected SK-Hep1 cells and the GPC-3 positive HepG2 cells; The cell line is named under assay; also called Glypican-3
Assay: confocal microscopy, cell surface staining of SK Hep1:hGPC-3 cells
Description: Incubation of SK Hep1:hGPC-3 and SK Hep1:EV (empty vector control) and HepG2 cells with hNGAL muteins (SEQ ID NOs: 1-6) and staining of GPC-3 and bound hNGAL muteins followed by confocal microscopy. Cells (SK Hep1:GPC-3, SK Hep1:EV or HepG2) were grown at 37° in a humidified CO2 incubator for 24 hrs and exposed to hNGAL muteins 1.0 ug/mL, fixed (4% PFA in PBS) and stained with a rabbit anti-lipocalin antibody overnight at 4° C. prior to addition of secondary donkey anti-rabbit AF568 antibody. For nuclei staining, cells were incubated in 300 uL of DAPI solution (1:50000 DAPI in PBS). Slides were viewed using Leica TCS SP5 DNI6000 CS Confocal Microscope (Leica) using the following lasers. […] Results clearly indicate binding of ail hNGAL muteins (SEQ ID NOs: 2-6) to the cell lines expressing GPC-3 (presence of GPC-3 on the surface of the cells was also confirmed by confocal imaging) and lack of binding of such hNGAL muteins to control cell line (SK-Hep1:EV).

T1 sequence (P51654 25-554 limits assumed): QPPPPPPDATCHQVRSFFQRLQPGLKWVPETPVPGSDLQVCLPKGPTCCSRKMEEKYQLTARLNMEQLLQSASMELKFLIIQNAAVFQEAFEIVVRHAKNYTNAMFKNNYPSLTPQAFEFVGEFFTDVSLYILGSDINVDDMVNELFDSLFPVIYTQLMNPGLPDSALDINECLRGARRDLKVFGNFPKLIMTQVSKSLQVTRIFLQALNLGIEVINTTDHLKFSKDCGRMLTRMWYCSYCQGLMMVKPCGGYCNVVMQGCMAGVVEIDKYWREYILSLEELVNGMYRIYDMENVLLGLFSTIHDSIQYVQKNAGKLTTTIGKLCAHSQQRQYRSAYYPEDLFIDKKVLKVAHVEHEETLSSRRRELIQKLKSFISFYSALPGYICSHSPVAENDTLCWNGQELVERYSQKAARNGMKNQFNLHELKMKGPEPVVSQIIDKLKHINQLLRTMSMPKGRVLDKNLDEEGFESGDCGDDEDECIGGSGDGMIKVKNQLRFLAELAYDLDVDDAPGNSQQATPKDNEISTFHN

binding result: no binding (tested: 1.0 ug/mL)
B1: lipocalin control (SEQ ID NO: 1) (other)
chain: QDSTSDLIPAPPLSKVPLQQNFQDNQFHGKWYVVGLAGNAILREDKDPQKMYATIYELKEDKSYNVTSVLFRKKKCDYWIRTFVPGSQPGEFTLGNIKSYPGLTSYLVRVVSTNYNQHAMVFFKKVSQNREYFKITLYGRTKELTSELKENFIRFSKSLGLPENHIVFPVPIDQCIDG
notes: also called mature human Lipocalin 2; mature hNGAL
